PMC3903573, “Effects of an Anticarcinogenic Bowman-Birk Protease Inhibitor on Purified 20S Proteasome and MCF-7 Breast Cancer Cells” (PLoS ONE, 2014)

Assays:
[1] = target: 20S proteasome purified from horse erythrocytes (horse); test: enzyme inhibition assay (fluorogenic substrates, Morrison equation); 20S proteasome 2.0 µg/mL with BTCI 2.0 to 30.0 µg/mL and 62.5 µg/mL fluorogenic substrate; 20.0 mM Tris-HCl pH 7.5, 1.0 mM EDTA, 1.0 mM NaN3, 1.0 mM DTT; room temperature, 60 min; Ki fitted with GRAFIT; details: both partners purified
[2] = target: the molecule itself; test: dynamic light scattering; BTCI alone, 15 µM, pH 7.5; hydrodynamic diameter 4.5 nm

B1: Black-eyed pea Trypsin/Chymotrypsin Inhibitor (natural protein, Vigna unguiculata (Cowpea), UniProt P17734 1-83, looked up)
chain: SGHHXXSTXXASXSSKPCCRXCACTKSIPPXCRCSXVRLNSCHSACKSCACTFSIPAXCFCGXIXXFCYKPCKSSHSXXXXWN
modifications: X not resolved here
notes: 83 amino acid residues, seven disulfide bonds, 9.1 kDa; reactive sites Lys26 (trypsin) and Phe53 (chymotrypsin); By DLS a trimer at 15 µM and pH 7.5; also called BTCI; source: isolated from Vigna unguiculata (Cowpea) seeds, purified as previously described [29]
KI or Kd, caspase-like site [1]: 1400 nM
KI or Kd, chymotrypsin-like site [1]: 700 nM
KI or Kd, trypsin-like site [1]: 100 nM
stoichiometry N [2]: 3
